Test system: MS2 coat protein
Test: apparent KD of MS2 coat protein; designed switch direction (-1 OFF switch, 1 ON switch): -1; higher = weaker reporter binding
In short: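 On Illumina chips, designed RNA switches with common flanks were made by stalled E. coli RNA polymerase. Titrations with SNAP-549-labelled MS2 coat protein, doubling from 0.7 or 1.5 nM to 3 µM, were done with no input, with 200 uM small-molecule ligand, or with an oligonucleotide input. Apparent KD is the median per design over clusters, from curve fits of normalised cluster fluorescence.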

[1] = input ligand: microRNA oligo, concentration not stated
[2] = Eterna round: R95, input ligand: microRNA oligo, concentration not stated
[3] = Eterna round: R95, input ligand: FMN 200 uM
[4] = Eterna round: R95, input ligand: none

Row | Sequence | apparent KD of MS2 coat protein (input ligand: FMN 200 uM) | apparent KD of MS2 coat protein (input ligand: none) | apparent KD of MS2 coat protein [1] | apparent KD of MS2 coat protein [2] | apparent KD of MS2 coat protein [3] | apparent KD of MS2 coat protein [4]
1 | UGCCUAUGAGGAUAUACGUAGAAAUAGAUUCAUGUAAAACUACAUGAGGAUCACCCAUGUAGAAGGCAUGGGCU [Mat - Exclusion 2 - JL Mod - D49] (Eterna round: R97, puzzle: Exclusion 2) | 27.5 nM | 16 nM |  |  |  | 
2 | UGCGAAGAGUGAGGAUAUGUGCGACAAAGUUGCACAGAAGGCACAUGAGGAUCACCCAUGUGAGCUAGGUCGAAAGACCUAGCG [Omei Exc(NG)1 Av7] (Eterna round: R96, puzzle: Exclusion NG 1) | 43.4 nM | 24.8 nM | 17.3 nM |  |  | 
3 | UGCGAGUAAGGAUAUUCGCGACCACCCACAAGGGCGGUCGAGAAGAAGGUACUUGAGGAUCACCCAAGUCCUAA [Inraindi] (Eterna round: R97, puzzle: Exclusion 4) | 95.5 nM | 20.2 nM |  |  |  | 
4 | UGCGUUCAAGGAUAUACAUGAGGAUCACCCAUGUGGAUGGCCGUUGUGUGAACACUUAGUAGAAGGUGACACGG [Eternabot (L2) Solution 5] (Eterna round: R97, puzzle: Exclusion 3) | 51.8 nM | 71.2 nM |  |  |  | 
5 | UGCUACGGAGGAUAUACAUGAGGAUCACCCAUGUGAGAGAUUUAGCCGAGAGGCUAGUGUAGAAGGCCGUAGCU [jl-ex3-4.17 jl mod] (Eterna round: R97, puzzle: Exclusion 3) | 400 nM | 62.8 nM |  |  |  | 
6 | UGCUGACGAGGAUAUACAUGAGGAUCACCCAUGUAAGAUCAGCGACGAUAGUCGCAAUGUAGAAGGCGUCAGCA [E3/10-A3] (Eterna round: R97, puzzle: Exclusion 3) | 228 nM | 28.5 nM |  |  |  | 
7 | UGCUGACGAGGAUAUACAUGAGGAUCACCCAUGUUGGUUCAGCGACGAUAGUCGCAAUGUAGAAGGUGUCAGCA [E3/9-B2] (Eterna round: R97, puzzle: Exclusion 3) | 748 nM | 97.2 nM |  |  |  | 
8 | UGCUGACGAGGAUAUACAUGAGGAUCACCCAUGUUGGUUCAGCGACUUCGGUCGCAAUGUAGAAGGCGUCAGCA [E3/9-A5] (Eterna round: R97, puzzle: Exclusion 3) | 230 nM | 523 nM |  |  |  | 
9 | UGGAGUAUGUAGGAUAUUCAGGCAAAGAAAGCCGAAGAAGGACAUACUUGAGGAUCACCCAAGUUGUCCAAAAU [Zaanatatri] (Eterna round: R97, puzzle: Exclusion 6) | 25.8 nM | 15.1 nM |  |  |  | 
10 | UGGCCACAUGAGGAUCACCCAUGUCAGGAUAUCGGAUAUAUUGUGGUUUUAAGACCAACGAGAAGGGACGGGUC [Eternabot (L1) Solution 9] (Eterna round: R97, puzzle: Exclusion 1) | 119 nM | 139 nM |  |  |  | 
11 | UGGGAACGAGGAUAUCGAUGGUGGAACAUGAGGAUCACCCAUGUAUGAGAUAGUGUAGGGCGAGAAGGCGUUAAGU [JR_E5_Sub052] (puzzle: Exclusion 5) |  |  |  | 76.7 nM |  | 
12 | UGGGUUACAGGAUAUACAUGAGGAUCACCCAUGUCAUGUUUCGUGGCGGAUAGCUCGAGUAGAAGGGUGCAUCC [Diorus] (puzzle: Exclusion 3) |  |  |  | 36.6 nM |  | 
13 | UGGGUUACCCAUGGAAGUAACAUGAGGAUCACCCAUGUAGGGCAAGUUUUUUGUUCGUCAUAGGCCGUGGGUUUGGA [JR_SV3TOV1_Sub021] (puzzle: Sensor v3, turn-off variant 1) |  |  |  | 56.8 nM | 30.4 nM | 32.4 nM
14 | UGGUGUUACGUAGGAUAUUGUCAACAGGCAGUAGGAUAUGCGAAAGCAGAAGGACCGCCAACAGGCGAGAAGGACGGGUUACCU [pwkr exNG2 2xF7 2xFMN.8] (Eterna round: R96, puzzle: Exclusion NG 2) | 136 nM | 211 nM | 145 nM |  |  | 
15 | UGGUUGUCAGGAUAUACGGUUUUUAACUUUAGUUUUAUAUUGUAGAAGGGACAUGAGGAUCACCCAUGUUACGU [LRO-Excl4-11-Bluer Omei Mod] (Eterna round: R97, puzzle: Exclusion 4) | 29.5 nM | 26.5 nM |  |  |  | 
16 | UGUAACCGAGGAUAUACAUGAGGAUCACCCAUGUAAUGUAGUAUAGUGUAUGUAAGGUGUAGAAGGUGGGAUGU (Eterna round: R97, puzzle: Exclusion 3) | 48.4 nM | 74.7 nM |  |  |  | 
17 | UGUAAGCUAGGAUAUGCUUUGGGAAAGCAUUCCUUCGAUAAACUUGAGGAUCACCCAAGUAGAAGGAGCUUACC [salish99_ex2_r4_008] (Eterna round: R97, puzzle: Exclusion 2) | 12.7 nM | 10.9 nM |  |  |  | 
18 | UGUACGAUGCGUGCUGACAUGCGUCGUGCAGCAGGUGAUACAUGAGGAUCACCCAUGUCCUCAUUUGCUCGUCUUAU [Mat - Sensor v3 - Turn-off var 2 - D23] (puzzle: Sensor v3, turn-off variant 2) |  |  |  | 218 nM | 53.5 nM | 55.6 nM
19 | UGUACUAUGCGAGCUGACUUGCGUAGUGCAGCAGGUGUAACAUGAGGAUCACCCAUGUCCUCAUUUGCUCGUCUUAA [Mat - Sensor v3 - Turn-off var 2 - D10] (puzzle: Sensor v3, turn-off variant 2) |  |  |  | 196 nM | 458 nM | 388 nM
20 | UGUCUGUCAGGAUAUCCAGAAGAGAAGAAAGUAAGAUGAGUGGAGAAGGGACAUGAGGAUCACCCAUGUAAUUA [My frist] (puzzle: Exclusion 4) |  |  |  | 29.7 nM |  | 
21 | UGUGCGUAUGUGAGGAUAUGCUGGUCCUUGGAUCGGCAGAAGGCACAUGAGGAUCACCCAUGUGGUGUCGUACG [salish99_Bmod_ex4_079] (puzzle: Brourd's mod of Exclusion 4) |  |  |  | 82.8 nM | 191 nM | 142 nM
22 | UGUGUACAUGAGGAUCACCCAUGUCAGGAUAUCUAGGCUCUCUCACUGACAACAGCCAAGAGAAGGGACGAGGU [EX1 B.7] (Eterna round: R97, puzzle: Exclusion 1) | 36.3 nM | 29.5 nM |  |  |  | 
23 | UGUUGUCGCGCAGGAUAUGAGGAUCACCCAUAUACAGGAUAUGAAAAGAAGGGUCUGAGGAUUACCCAGAAGGGCGGGACAACU [pwkr exNG2 2xF5 2xFMN.26] (Eterna round: R96, puzzle: Exclusion NG 2) | 386 nM | 88 nM | 59.1 nM |  |  | 
24 | UGUUGUCGCGCAGGAUAUGGCCAACAGGCCCUAGGAUAUCGGAAACGAGAAGGAGCGCCAACAGGCGAGAAGGGCGGGACAACU [pwkr exNG2 2xF7 2xFMN.18] (Eterna round: R96, puzzle: Exclusion NG 2) | 85.9 nM | 995 nM | 912 nM |  |  | 
25 | UGUUGUCGCGUAGGAUAUGAGGAUCACCCAUAGAAGGAUAUCGAAAGAGAAGGUCUGAGGAUUACCCAGAAGGACGGGACAACU [pwkr exNG2 2xF5 2xFMN.14] (Eterna round: R96, puzzle: Exclusion NG 2) | 682 nM | 151 nM | 160 nM |  |  | 
26 | UGUUGUCGCGUAGGAUAUGAGGAUCACCCAUAUAGAGGAUAUGAAAAGAAGGCUCUGAGGAUCACCCAGAAGGACGGGACAACU [pwkr exNG2 2xF5 2xFMN.24] (Eterna round: R96, puzzle: Exclusion NG 2) | 1720 nM | 207 nM | 214 nM |  |  | 
27 | UGUUGUUACGCAGGAUAUGAGGAUCACCCAUAGUAGGAUAACGAAAGUGAAGGACUGAGGAUUACCCAGAAGGGCGGGUUAACA [pwkr exNG2 2xF5 2xFMN.3] (Eterna round: R96, puzzle: Exclusion NG 2) | 1010 nM | 154 nM | 101 nM |  |  | 
28 | UGUUGUUACGCAGGAUAUGUAUGAGGAUCACCCAUAAGAGUUGAUGUACCAUGAGGAUCACCCAUGUAGAAGGGCGGGUUAACA [pwkr exNG2 2xF5 1xFMN.9] (Eterna round: R96, puzzle: Exclusion NG 2) | 365 nM | 234 nM | 194 nM |  |  | 
29 | UGUUGUUCAGGAUAUGAUGUAUAAUACAUGAGGAUCACCCAUGUAGAUCCUGAAUUAACAUCAGAAGGGAAUGUUG [salish99_ex5_r4_102] (Eterna round: R97, puzzle: Exclusion 5) | 19.4 nM | 15.2 nM |  |  |  | 
30 | UGUUGUUCAGGAUAUGAUGUAUAAUACAUGAGGAUCACCCAUGUAGAUCCUGAUUUGGCGUCAGAAGGGAAUGUUG [salish99_ex5_r4_106] (Eterna round: R97, puzzle: Exclusion 5) | 41 nM | 33.2 nM |  |  |  | 

Reference: the supplement of paper PMC9170038
